Experimental findings from paper PMC3048092 are described below.

The target in this assay is FITC-BAD pSAHB-2. The experiment in a line: cross-linking.

The substance BCL-XLΔC (domain or fragment) had a crosslinking conversion at 2 hours of UV exposure of 35%.
